The values that follow come from the supplement of paper PMC9732359.

± gives the uncertainty stated by the source.

A short description of this data set: protein stability index of a GFP-peptide fusion (yeast GPS) (PSI 1-4); higher = more stable; sorted into four equal gates, so the index is relative within each strain. The gist of the method: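 Yeast carrying a pooled library were grown to mid-log phase in leucine-free medium. Each library plasmid expresses Cherry and has a tiled 17-residue yeast protein peptide fused downstream of GFP. Cells were sorted into four equal gates by GFP/Cherry ratio, and plasmids from each gate were PCR-amplified, Illumina-sequenced and assigned to strains by barcode. Summing, across gates, the read frequency times the gate number gave each peptide's protein stability index.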

With APLAKVVFRDPYKYRLR [RPL2A], the protein stability index runs as follows: (doa10∆) 2.93 ± 0.098; (pdr5∆) 3.16 ± 0.1; (san1∆) 3.07 ± 0.06; (ubr1∆) 3.13 ± 0.062.

In the case of ENDLLQEFDSELSKEEK [SMC3], the protein stability index runs as follows: (doa10∆) 2.74 ± 0.3; (ubr1∆) 3.03 ± 0.27.

As for MLPPKSVKFTHIAHTLP [SSN2], the protein stability index (doa10∆) is 1.57 ± 0.073, the protein stability index (pdr5∆) came out at 2 ± 0.05, the protein stability index (san1∆) amounted to 2.05 ± 0.098 and the protein stability index (ubr1∆) came to 1.82 ± 0.034.

For the sequence FLRPTYPDLCSIYDKWT [RPN1], the protein stability index by setting is: (doa10∆) 2.83 ± 0.064; (pdr5∆) 2.82 ± 0.059; (san1∆) 2.35 ± 0.069; (ubr1∆) 2.47 ± 0.046.

In the case of VKSLVDNMITGVTKGYK [RPL9A], the protein stability index was determined as 2.75 ± 0.081 (doa10∆), 3.31 ± 0.14 (pdr5∆), 2.92 ± 0.25 (san1∆) and 3.11 ± 0.073 (ubr1∆).

Turning to GSEVRLRDDTLPKAWIS [COR1], the protein stability index amounted to 2.49 ± 0.053 (doa10∆), 2.75 ± 0.065 (pdr5∆), 2.72 ± 0.075 (san1∆) and 2.69 ± 0.06 (ubr1∆).

Take EELRKHAQKRVSNASAR [SKI6]: the protein stability index by setting is: (doa10∆) 3.25 ± 0.23; (pdr5∆) 3.22 ± 0.095; (san1∆) 3.01 ± 0.11; (ubr1∆) 2.89 ± 0.073.

On to AIRRDARYNWICNPVHK [RPL15B], for which the protein stability index (doa10∆) is 3.03 ± 0.16, the protein stability index (pdr5∆) is 3.38 ± 0.13, the protein stability index (san1∆) came to 3.37 ± 0.13 and the protein stability index (ubr1∆) was determined as 3.21 ± 0.081.

For the sequence LIARRDDESPRFVMPNQ [RRP6], the protein stability index was 3.27 ± 0.082 (doa10∆), 3.32 ± 0.07 (pdr5∆), 3.21 ± 0.081 (san1∆) and 3.21 ± 0.061 (ubr1∆).

As for EVTIEDALKVVLRTALV [RPS12], the protein stability index was 3.35 ± 0.11 (doa10∆), 3.31 ± 0.091 (pdr5∆), 3.35 ± 0.099 (san1∆) and 3.11 ± 0.067 (ubr1∆).

As for SGGSRNTSESLLVDIQK [SMC2], the protein stability index stood at 2.59 ± 0.14 (doa10∆), 2.22 ± 0.16 (pdr5∆), 2.33 ± 0.12 (san1∆) and 1.73 ± 0.13 (ubr1∆).

As to LNEMLNTRKNMSISLES [DIS3], the protein stability index turned out to be 2.66 ± 0.053 (doa10∆), 2.91 ± 0.066 (pdr5∆), 2.63 ± 0.069 (san1∆) and 2.95 ± 0.051 (ubr1∆).

NLFGATANANKPAFSFG [YJL041W/NSP1]: the protein stability index (doa10∆) came to 3.05 ± 0.096, the protein stability index (pdr5∆) came out at 3.18 ± 0.081, the protein stability index (san1∆) was 3.14 ± 0.074 and the protein stability index (ubr1∆) was 3.12 ± 0.057.

Regarding LASNFDNFDYFNQRDGE [MED1], the protein stability index was 3.3 ± 0.08 (doa10∆), 3.17 ± 0.09 (pdr5∆), 3.2 ± 0.084 (san1∆) and 3.1 ± 0.11 (ubr1∆).

For ELDRAAMNDKDLTMGQV [RPO21], the protein stability index runs as follows: (doa10∆) 3.29 ± 0.17; (pdr5∆) 3.31 ± 0.14; (san1∆) 2.8 ± 0.13; (ubr1∆) 3.12 ± 0.097.

Consider EKFSPKSFISKLLGIGD [SRP54], for which the protein stability index worked out at 3.49 ± 0.14 (doa10∆), 3.31 ± 0.15 (pdr5∆), 2.68 ± 0.2 (san1∆) and 3.21 ± 0.17 (ubr1∆).

As for PNTTKTKLRAFVYNKVN [YGR119C/NUP57], where the note is “doa10∆”, the protein stability index came out at 2.47 ± 0.21.

LRSDIPCLSRSCTKCPQ [DIS3]: the protein stability index was determined as 2.89 ± 0.04 (doa10∆), 2.94 ± 0.04 (pdr5∆), 2.91 ± 0.031 (san1∆) and 2.92 ± 0.033 (ubr1∆).

Sequence FGAKSDENKAGATSKPA [YJL041W/NSP1] showed a protein stability index (doa10∆) of 3.25 ± 0.11, a protein stability index (pdr5∆) of 3.23 ± 0.1, a protein stability index (san1∆) of 3.44 ± 0.065 and a protein stability index (ubr1∆) of 3.25 ± 0.086.

With LKKFRESLVHSALCILK [BRR2], the protein stability index is, setting by setting: (doa10∆) 3.21 ± 0.12; (pdr5∆) 2.1 ± 0.073; (san1∆) 2.86 ± 0.078; (ubr1∆) 2.97 ± 0.066.

Take NQNICTSVTRRSPVFAL [GRR1]: the protein stability index (doa10∆) came to 1.43 ± 0.039, the protein stability index (pdr5∆) was 1.6 ± 0.037, the protein stability index (san1∆) came to 1.5 ± 0.058 and the protein stability index (ubr1∆) was 1.74 ± 0.031.

Turning to LNISPFTFGLTVVQVYD [RPP0], the protein stability index reads like this: (doa10∆) 1.31 ± 0.043; (pdr5∆) 1.61 ± 0.052; (san1∆) 1.55 ± 0.072; (ubr1∆) 1.2 ± 0.044.

On to ENFAKGEHISAIVPGQS [SWP82], for which the protein stability index stood at 3.01 ± 0.064 (doa10∆), 3.18 ± 0.085 (pdr5∆), 2.87 ± 0.06 (san1∆) and 3.05 ± 0.055 (ubr1∆).

With RLECVKCKTRAQLTLKR [RPL42A], the protein stability index reads like this: (doa10∆) 2.8 ± 0.096; (pdr5∆) 2.46 ± 0.085; (san1∆) 2.52 ± 0.14; (ubr1∆) 2.54 ± 0.056.

In turn, AADILCELQVETYGSME [RPN5] displayed a protein stability index (doa10∆) of 3.15 ± 0.1, a protein stability index (pdr5∆) of 3.34 ± 0.075, a protein stability index (san1∆) of 3.27 ± 0.1 and a protein stability index (ubr1∆) of 3.18 ± 0.23.

Take KDKFNQIPLHRAASVGS [NAS6]: the protein stability index worked out at 1.81 ± 0.074 (doa10∆), 2.13 ± 0.079 (pdr5∆), 2.05 ± 0.15 (san1∆) and 2.26 ± 0.082 (ubr1∆).
